Experimental data from patent US20230357429A1 (JANUX THERAPEUTICS, published 2023).
Like-named read-outs stand apart in the source and are kept apart here. Where no end group is shown, it is not given here.

What was measured:
[1] = biological target: T1, Peptide-10 (cysteine pairing not given here; also: biotinylated (site not given here)); assay: ELISA, Fab on captured biotin-peptide
T1 peptide: IDFCAIYQWPVCRS

[2] = biological target: T2, Peptide-13 (cysteine pairing not given here; also: biotinylated (site not given here)); assay: ELISA, Fab on captured biotin-peptide
T2 peptide: VDFCELYRWPICNS

[3] = biological target: T3, Peptide-8 (cysteine pairing not given here; also: biotinylated, site not given here); assay: ELISA, Fab on captured biotin-peptide
T3 peptide: VDFCGLYHWPICYQ

[4] = biological target: T4, Peptide-1 (cysteine pairing not given here; also: biotinylated (site not given here)); assay: ELISA, Fab on captured biotin-peptide
T4 peptide: IDFCAMYQWPICDT

[5] = biological target: T5, Peptide-4 (cysteine pairing not given here; also: biotinylated, site not given here); assay: ELISA, Fab on captured biotin-peptide
T5 peptide: VDFCKIYAWPICGS

[6] = biological target: T6, Peptide-20 (cysteine pairing not given here; also: biotinylated (site not given here)); assay: ELISA, Fab on captured biotin-peptide
T6 peptide: VDFCSFYRWPICET

[7] = biological target: T7, Peptide-18 (cysteine pairing not given here; also: biotinylated (site not given here)); assay: ELISA, Fab on captured biotin-peptide
T7 peptide: MDFCQIYDWPICRL

[8] = biological target: T8, Peptide-6 (cysteine pairing not given here; also: biotinylated, site not given here); assay: ELISA, Fab on captured biotin-peptide
T8 peptide: IDFCLIYNWPVCDT

[9] = biological target: T9, Peptide-2 (cysteine pairing not given here; also: biotinylated (site not given here)); assay: ELISA, Fab on captured biotin-peptide
T9 peptide: IDFCAVYKWPVCQV

[10] = biological target: T10, Peptide-17 (cysteine pairing not given here; also: biotinylated (site not given here)); assay: ELISA, Fab on captured biotin-peptide
T10 peptide: IDFCLLYDWPICGR

[11] = biological target: T11, Peptide-5 (cysteine pairing not given here; also: biotinylated, site not given here); assay: ELISA, Fab on captured biotin-peptide
T11 peptide: VDFCKLYNWPVCQT

[12] = biological target: T12, Peptide-14 (cysteine pairing not given here; also: biotinylated (site not given here)); assay: ELISA, Fab on captured biotin-peptide
T12 peptide: LDFCKIYDWPICHL

[13] = biological target: T13, Peptide-7 (cysteine pairing not given here; also: biotinylated, site not given here); assay: ELISA, Fab on captured biotin-peptide
T13 peptide: EDFCKLYNWPICYQ

[14] = biological target: T14, Peptide-12 (cysteine pairing not given here; also: biotinylated (site not given here)); assay: ELISA, Fab on captured biotin-peptide
T14 peptide: PDFCAVYRWPICYQ

[15] = biological target: T15, Peptide-25 (cysteine pairing not given here; also: biotinylated (site not given here)); assay: ELISA, Fab on captured biotin-peptide
T15 peptide: VDFCKIYSWPVCHQ

[16] = biological target: T16, Peptide-3 (cysteine pairing not given here; also: biotinylated, site not given here); assay: ELISA, Fab on captured biotin-peptide
T16 peptide: IDFCMLYNWPICAG

[17] = biological target: T17, Human TROP2 ECD (31-274 AA), biotinylated (human, UniProt P09758 31-274, biotinylated (site not stated)); assay: ELISA, Fab on captured biotin-TROP2
T17 construct: captured on neutravidin plates; also called TROP2-biotin; Trop2-biotin
T17 sequence: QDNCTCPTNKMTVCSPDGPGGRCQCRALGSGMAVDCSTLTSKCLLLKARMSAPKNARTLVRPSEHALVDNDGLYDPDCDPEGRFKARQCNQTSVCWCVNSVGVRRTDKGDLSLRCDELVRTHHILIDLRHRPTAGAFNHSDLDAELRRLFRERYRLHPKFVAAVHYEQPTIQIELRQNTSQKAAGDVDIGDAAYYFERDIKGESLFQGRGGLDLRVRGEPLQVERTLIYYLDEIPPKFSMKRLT

[18] = biological target: T17, Human TROP2 ECD (31-274 AA), …; assay: ELISA, Fab on captured biotin-TROP2; remark: listed apart in the source
[19] = biological target: T18, Peptide-62 (cysteine pairing not given here; also: biotinylated, site not given here); assay: ELISA, Fab on captured biotin-peptide
T18 peptide: IDFCAVYKWPVCQV

[20] = biological target: T3, Peptide-8; assay: ELISA, Fab on captured biotin-peptide
[21] = biological target: T19, Peptide-64 (cysteine pairing not given here; also: biotinylated, site not given here); assay: ELISA, Fab on captured biotin-peptide
T19 peptide: PDFCAVYRWPICYQ

[22] = biological target: T20, Peptide-33 (cysteine pairing not given here; also: biotinylated, site not given here); assay: ELISA, Fab on captured biotin-peptide
T20 peptide: PDFCYMYNWPVCVT

[23] = biological target: T21, Peptide-39 (cysteine pairing not given here; also: biotinylated, site not given here); assay: ELISA, Fab on captured biotin-peptide
T21 peptide: VDFCGLYHWPICYQVD

[24] = biological target: T22, Peptide-38 (cysteine pairing not given here; also: biotinylated, site not given here); assay: ELISA, Fab on captured biotin-peptide
T22 peptide: VDFCSIYHWPVCYV

[25] = biological target: T23, Peptide-32 (cysteine pairing not given here; also: biotinylated, site not given here); assay: ELISA, Fab on captured biotin-peptide
T23 peptide: PDFCYMYGWPICDS

[26] = biological target: T24, Peptide-43 (cysteine pairing not given here; also: biotinylated, site not given here); assay: ELISA, Fab on captured biotin-peptide
T24 peptide: VDFCALYHWPICYQ

[27] = biological target: T25, Peptide-63 (cysteine pairing not given here; also: biotinylated, site not given here); assay: ELISA, Fab on captured biotin-peptide
T25 peptide: IDFCLIYNWPVCDT

[28] = biological target: T26, Peptide-36 (cysteine pairing not given here; also: biotinylated, site not given here); assay: ELISA, Fab on captured biotin-peptide
T26 peptide: VDFCYQYGWPICSR

[29] = biological target: T27, Peptide-42 (cysteine pairing not given here; also: biotinylated, site not given here); assay: ELISA, Fab on captured biotin-peptide
T27 peptide: IDFCAMYHWPICDT

[30] = biological target: T28, Peptide-37 (cysteine pairing not given here; also: biotinylated, site not given here); assay: ELISA, Fab on captured biotin-peptide
T28 peptide: VDFCYLYNWPVCSK

[31] = biological target: T29, Peptide-35 (cysteine pairing not given here; also: biotinylated, site not given here); assay: ELISA, Fab on captured biotin-peptide
T29 peptide: EDFCYWYQWPICSD

[32] = biological target: T30, Peptide-41 (cysteine pairing not given here; also: biotinylated, site not given here); assay: ELISA, Fab on captured biotin-peptide
T30 peptide: VDFCGLYHWPICYQVY

[33] = biological target: T15, Peptide-25; assay: ELISA, Fab on captured biotin-peptide
[34] = biological target: T16, Peptide-3; assay: ELISA, Fab on captured biotin-peptide
[35] = biological target: T31, Peptide-40 (cysteine pairing not given here; also: biotinylated, site not given here); assay: ELISA, Fab on captured biotin-peptide
T31 peptide: VDFCYLYSWPICTK

[36] = biological target: T32, TCE-10 (anti-CD3 scFv R100A; anti-TROP2 wt); assay: competition ELISA, TCE on captured CD3
T32 construct: scFv on the Fab heavy chain; also called TCE-10 (R100A)

[37] = biological target: T33, TCE-20 (anti-CD3 scFv S110A; anti-TROP2 wt); assay: competition ELISA, TCE on captured CD3
T33 construct: scFv on the Fab heavy chain; also called TCE-20 (S110A)

[38] = biological target: T34, TCE-13 (anti-CD3 scFv N103A; anti-TROP2 wt); assay: competition ELISA, TCE on captured CD3
T34 construct: scFv on the Fab heavy chain; also called TCE-13 (N103A)

[39] = biological target: T35, TCE-11 (anti-CD3 scFv H101A; anti-TROP2 wt); assay: competition ELISA, TCE on captured CD3
T35 construct: scFv on the Fab heavy chain; also called TCE-11 (H101A)

[40] = biological target: T36, TCE-22 (anti-CD3 scFv W112A; anti-TROP2 wt); assay: competition ELISA, TCE on captured CD3
T36 construct: scFv on the Fab heavy chain; also called TCE-22 (W112A)

[41] = biological target: T37, TCE-33 (anti-CD3 scFv F240A; anti-TROP2 wt); assay: competition ELISA, TCE on captured CD3
T37 construct: scFv on the Fab heavy chain; also called TCE-33 (F240A)

[42] = biological target: T38, TCE-31 (anti-CD3 scFv W238A; anti-TROP2 wt); assay: competition ELISA, TCE on captured CD3
T38 construct: scFv on the Fab heavy chain; also called TCE-31 (W238A)

[43] = biological target: T39, TCE-26 (anti-CD3 scFv W233A; anti-TROP2 HC wt); assay: competition ELISA, TCE on captured CD3
T39 construct: scFv on the Fab heavy chain; also called TCE-26 (W233A)

[44] = biological target: T40, TCE-1 (anti-CD3 scFv wt; anti-TROP2 Fab wt); assay: competition ELISA: peptide titrated and pre-incubated with a constant concentration of TCE-1, binding of TCE-1 to plate-bound biotinylated CD3 detected
T40 construct: anti-CD3 scFv fused to the N-terminus of the anti-TROP2 Fab heavy chain; also called TCE-1 (wt)

[45] = biological target: T41, TCE-14 (anti-CD3 scFv F104A; anti-TROP2 wt); assay: competition ELISA, TCE on captured CD3
T41 construct: scFv on the Fab heavy chain; also called TCE-14 (F104A)

B1: TBD-22 (HC D109A) (Fab, V domains shown)
VH: QVQLQQSGSELKKPGASVKVSCKASGYTFTNYGMNWVKQAPGQGLKWMGWINTYTGEPTYTDDFKGRFAFSLDTSVSTAYLQISSLKADDTAVYFCARGGFGSSYWYFAVWGQGSLVTVSS
VL: DIQLTQSPSSLSASVGDRVSITCKASQDVSIAVAWYQQKPGKAPKLLIYSASYRYTGVPDRFSGSGSGTDFTLTISSLQPEDFAVYYCQQHYITPLTFGAGTKVEIKR
notes: Fab; also called HC D109A mutant
EC50 [1]: 1 nM | EC50 [2]: 3.9 nM | EC50 [3]: 0.6 nM | EC50 [4]: 1 nM | EC50 [5]: 1.2 nM | EC50 [6]: 5.3 nM | EC50 [7]: 7.8 nM | EC50 [8]: 1.4 nM | EC50 [9]: 1.1 nM | EC50 [10]: 2.6 nM | EC50 [11]: 0.9 nM | EC50 [12]: 5.3 nM | EC50 [13]: 3.6 nM | EC50 [14]: 0.6 nM | EC50 [15]: 1.9 nM | EC50 [16]: 1.6 nM | EC50 [17]: 1.1 nM | EC50 [18]: 1.1 nM | EC50 [19]: 0.9 nM | EC50 [20]: 0.6 nM | EC50 [21]: 1.7 nM | EC50 [22]: 1.5 nM | EC50 [23]: 4.6 nM | EC50 [24]: 2 nM | EC50 [25]: 2.1 nM | EC50 [26]: 0.9 nM | EC50 [27]: 1.7 nM | EC50 [28]: 2.2 nM | EC50 [29]: 0.8 nM | EC50 [30]: 1.7 nM | EC50 [31]: 7.7 nM | EC50 [32]: 6 nM | EC50 [33]: 2.8 nM | EC50 [34]: 3 nM | EC50 [35]: 4.6 nM

VDCGPDGDESILCY (cysteine pairing not given here; also: biotinylated, site not given here, mask peptide for the CD3 scFv) [Peptide-71]
IC50 [36]: 1350 nM | IC50 [37]: 11800 nM | IC50 [38]: 5080 nM | IC50 [39]: 3720 nM | IC50 [40]: 13800 nM | IC50 [41]: 4830 nM | IC50 [42]: 51000 nM | IC50 [43]: 75400 nM | binding result [44]: binds

DWCWYSPDNDGLCD (cysteine pairing not given here; also: biotinylated, site not given here, mask peptide for the CD3 scFv) [Peptide-68]
IC50 [36]: 88900 nM | IC50 [45]: 1080 nM | IC50 [37]: 400 nM | IC50 [41]: 7350 nM | IC50 [42]: 9470 nM | IC50 [43]: 43000 nM | binding result [44]: binds

SECLVDLQSDPCYW (cysteine pairing not given here; also: biotinylated, site not given here, mask peptide for the CD3 scFv) [Peptide-69]
IC50 [45]: 11800 nM | IC50 [37]: 4240 nM | IC50 [38]: 50400 nM | IC50 [40]: 56800 nM | IC50 [41]: 810 nM | IC50 [42]: 6570 nM | IC50 [43]: 2020 nM | binding result [44]: binds
